For data set [1], the system named is normal human keratinocytes. In words: Cell viability test (XTT). The following applies: 100 to 1 μg/ml, medium renewed every two days (repeated twice).
Protocol: NHKs were seeded in 96-well plates at 10^4 cells per well. After 24 hours, the culture media were removed and replaced with KBM-2 medium containing the concentrations of peptide [sequence] (SEQ ID NO: 1) (upper curve) or LG4/5 protein (lower curve) shown. After 48 h of contact at 37° C. the media were removed and this step was repeated twice. After 48 h of contact at 37° C. the media were replaced by XTT reagent. The plates were then placed in an incubator at 37° C. and the absorption was read after 6 hours. Controls with neither peptide nor protein were made on the same plate.
The effect of the peptide on the cell viability of the normal human keratinocytes was analysed using a colorimetric assay (XTT Cell Proliferation Kit, Roche Diagnostics, Meylan, France). A control with the LG4/5 protein was carried out in parallel. The chemical reaction of the test is based on the production of NADPH in living cells reducing yellow tetrazolium XTT salts to orange formazan salts. Absorption at 490 nm is measured using an ELISA plate reader. […] In this case, cell viability was calculated from the formula: % viability=(Abs. cells with peptide/Abs. control cells)×100.
In another data set the target is T1, syndecan-1 (Homo sapiens, UniProt P18827).
T1 construct: endogenous in cells; host or cells: primary normal human keratinocytes from foreskin biopsies
T1 sequence (P18827 23-310): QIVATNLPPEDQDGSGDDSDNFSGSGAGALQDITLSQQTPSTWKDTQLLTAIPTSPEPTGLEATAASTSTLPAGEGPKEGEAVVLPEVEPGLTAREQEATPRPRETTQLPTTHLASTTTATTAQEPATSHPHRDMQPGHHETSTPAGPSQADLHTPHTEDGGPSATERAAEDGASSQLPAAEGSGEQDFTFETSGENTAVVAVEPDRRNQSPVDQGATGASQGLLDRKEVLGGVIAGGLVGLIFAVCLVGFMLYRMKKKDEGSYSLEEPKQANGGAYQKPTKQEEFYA
In words: Affinity chromatography (pull-down) with peptide-coated beads and syndecan-1 immunodetection. Format: binding. The following applies: lysate of normal human keratinocytes, 2 mg; immunoblotting with antibody H174. The procedure: (A) A lysate of normal human keratinocytes was prepared as described in the Materials and Methods section and 2 mg of the lysate were incubated with neutravidin beads not coated or coated with the biotinylated peptides KKLRIKSKEK (SEQ ID NO: 1), PSGKPKSLP (SEQ ID NO: 19) and TSVTPKQSL (SEQ ID NO: 20). After washing, the material bound to the beads was digested with a mixture of heparitinase I and chondroitinase ABC to release the protein part of the syndecan-1 from the glycosaminoglycans. The samples were then analysed by SDS PAGE electrophoresis in an 8% acrylamide gel under non-reducing conditions and by immunoblotting with polyclonal anti-syndecan antibody H174. (B) A lysate of normal human keratinocytes was prepared and 2 mg of the lysate were incubated with neutravidin beads not coated or coated with the biotinylated peptide KKLRIKSKEK (SEQ ID NO: 1), or with sepharose beads coated with the whole LG4/5 fragment. After washing, the material bound to the beads was digested with a mixture of heparitinase I and chondroitinase ABC to release the protein part of the syndecan-1 from the glycosaminoglycans. The samples were then analysed by SDS PAGE electrophoresis in an 8% acrylamide gel under non-reducing conditions and by immunoblotting with polyclonal anti-syndecan antibody H174. (A, B) The position of molecular weight markers is shown on the left.
A series of point mutations was introduced into the peptide KKLRIKSKEK (SEQ ID NO: 1) by successively replacing each amino acid by an alanine (A). […] The samples were then analysed by SDS PAGE electrophoresis in an 8% acrylamide gel under non-reducing conditions and by immunoblotting with polyclonal anti-syndecan antibody H174. […]
A series of point or multiple mutations was introduced into the peptide KKLRIKSKEK (SEQ ID NO: 1) by replacing one or more lysines (K) by a glutamine (Q). […] The samples were then analysed by SDS PAGE electrophoresis in an 8% acrylamide gel under non-reducing conditions and by immunoblotting with polyclonal anti-syndecan antibody H174. […]
On the technique in general: In western blotting, separated proteins are transferred to a membrane and probed.

The next data set relates to HT1080 cells. In words: Cell adhesion test (crystal violet colorimetric) on immobilised peptide, HT1080 cells. The settings on record: microscopy, FIG. 6B. Format: cell-based, Human. The method, then: (A, B) Dose-dependent adhesion of normal human keratinocytes and cells of the HT1080 strain to the peptide KKLRIKSKEK (SEQ ID NO: 1) and to the LG4/5 protein. The peptide (A) and the protein LG4/5 (B) were immobilised on 96-well plates at the concentrations indicated on the abscissa. 6·10^4 cells were deposited in each well and the plates were incubated at 37° C. for 1 hour. After washing, the adherent cells were fixed and cell adhesion was measured as described in the methodology section. (C) Observation of normal human keratinocytes and HT1080 cells adhering to KKLRIKSKEK peptide (SEQ ID NO: 1) and to the LG4/5 protein. The observation was made with a Zeiss Axiovert 40 microscope equipped with a PlasDic interference unit. 50 μm bar.
(A) A decreasing range of peptides KKLRIKSKEK (SEQ ID NO: 1) and NSFMALYLSKGR (SEQ ID NO: 21) was immobilised in 96-well Microlon plates and the amount actually adsorbed was determined by protein assay with reference to a corresponding range of peptides made extemporaneously. The quantities of peptide tested are indicated on the abscissa of the graph. 6·10^4 cells were deposited in each well and the plates were incubated at 37° C. for 1 hour. After washing, the adherent cells were fixed and cell adhesion was measured as described in the methodology section. […]

The target of data set [2] is T2, syndecan-1 from lysates of normal human keratinocytes or normal human fibroblasts (human, UniProt P18827 23-310, limits assumed, carries heparan sulphate and chondroitin sulphate chains during binding; stripped with heparitinase I and chondroitinase ABC before the immunoblot).
T2 construct: Endogenous proteoglycan of cell lysates; also called syndecan-1 receptor
T2 sequence (looked up): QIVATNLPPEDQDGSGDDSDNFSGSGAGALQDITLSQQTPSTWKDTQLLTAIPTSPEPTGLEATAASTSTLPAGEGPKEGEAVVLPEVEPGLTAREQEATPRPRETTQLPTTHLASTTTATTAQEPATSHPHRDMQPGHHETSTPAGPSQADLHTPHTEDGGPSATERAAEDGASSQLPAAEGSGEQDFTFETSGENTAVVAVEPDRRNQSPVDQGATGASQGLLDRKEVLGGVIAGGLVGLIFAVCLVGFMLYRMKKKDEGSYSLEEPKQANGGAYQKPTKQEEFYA
Nature of the data set: pull-down from normal human keratinocyte lysate, immunoblot with H174. The procedure: To identify the nature of the cell receptor binding to the peptide […] (SEQ ID NO: 1), affinity chromatography or 'pull-down' assays were performed by incubating beads coated with peptides with cell lysates. Lysates of primary keratinocytes or fibroblasts were made using a lysis buffer of 1% triton X-100 in PBS, pH 7.5, containing N-ethylmaleimide and phenylmethylsulphonylfluoride 50 mM. The wild type peptide […] (SEQ ID NO: 1) and the mutated peptides were bound to biotin at their amino-terminal ends and 100 µg of each biotinylated peptide were attached to agarose-neutravidin beads (Perbio Science, Bezons, France) by incubation for 16 hours at +4° C. The beads were then incubated with 2 mg of cell lysate for 2 hours at +4° C. After washing 3 times with the lysis buffer, the beads were transferred into a digestion buffer (20 mM sodium acetate, 5 mM CaCl2, pH 7.0) containing 8 mU/ml heparitinase I and 50 mU/ml of chondroitinase ABC (Seikagaku America, Coger, Paris, France) for 2 hours at 25° C. This treatment strips the protein part of syndecan-1 of glycosaminoglycans, making it easier to analyse by immunoblotting. The samples were then analysed by SDS PAGE electrophoresis in an 8% acrylamide gel under non-reducing conditions and by immunoblotting with polyclonal anti-syndecan antibody H174 (Santa Cruz Biotechnology, Le Perray en Yvelines, France).

Ends that are not written are not given here. * marks the point of attachment. Biotin = O=C1N[C@H]2[C@H](CS[C@H]2CCCCC(=O)*)N1

For the molecule KKLRIKSKEK [KKLRIKSKEK], in data set [1], the “Cytotoxic effect on epidermal keratinocytes (percentage of viable cells vs controls)” value was “neither peptide KKLRIKSKEK (SEQ ID NO: 1) nor protein LG4/5 has any long-term cytotoxic effect”.

“KKLRLRSKER [M2, from the murine laminin alpha3 chain]”: the “Binding of syndecan-1 to the biotinylated peptide on beads” value (“Binding … on beads” below) in the data set with syndecan-1 is “proved capable of binding syndecan-1”.

Regarding NSFMALYLSKGR, the “Morphology of HT1080 cells adhering to the peptide” value with HT1080 cells is recorded as “no cytoplasmic prolongations were noted”.

On to PSGKPKSLP, for which the “Binding … on beads” value in the data set with syndecan-1 is listed as “did not retain the syndecan-1”.

As to TSVTPKQSL, the “Binding … on beads” value with syndecan-1 was “did not retain the syndecan-1”.

For the molecule PSGKPKSLP (also: biotinylated) [biotinylated peptide PSGKPKSLP (SEQ ID NO: 19)], in data set [2], the binding result is “no binding”.

With TSVTPKQSL (also: biotinylated) [biotinylated peptide TSVTPKQSL (SEQ ID NO: 20)], in data set [2], the binding result is “no binding”.

In the case of Biotin-KKLRIKAKEK [mutated peptide A7 (alanine in place of amino acid 7 of …)], the binding result in data set [2] was “no binding”.

For the molecule Biotin-AKLRIKSKEK [mutated peptide A1 (alanine in place of amino acid 1 of …)], the binding result in data set [2] is given as “no binding”.

Consider Biotin-KKLAIKSKEK [mutated peptide A4 (alanine in place of amino acid 4 of …)], for which the binding result in data set [2] is “no binding”.

These data come from patent publication US9260507B2, “Peptide promoting cell adhesion and migration” (Symatese, priority 2009, dated 2016).
